Assays:
[1] = system: CFPAC1 cells; assay: Transcriptional changes to EMT genes, qPCR; type: cell-based, human
Protocol: (§1) The CFPAC1 cell line was cultured in DMEM media (Gibco #11960) supplemented with 10% FBS (Sigma), 2 mM L Glutamine (Gibco), at 37° C., 5% CO2. For 7 day treatments, cells were seeded on tissue culture plastic in complete growth media and allowed to attach overnight at cell densities that would provide approximately 60-80% confluence at end of experiment. Ligand and/or inhibitor was added the following day (Day 0) in complete growth media and incubated at 37° C., 5% CO2. Ligand source and concentrations used are as follows: [1] From R&D systems, SDF-1α (stromal derived factor-1 alpha) at 100 ng/ml, TRANCE (TNF-related activation induced cytokine) at 50 ng/ml, FGF1 (fibroblast growth factor acidic) at 10 ng/ml, FGF2 (fibroblast growth factor basic) at 10 ng/ml, BMP4 (bone morphogenetic protein 4) at 100 ng/ml, BMP7 (bone morphogenetic protein 7) at 100 ng/ml, IGF2 (insulin-like growth factor 2) at 100 ng/ml, OSM (Oncostatin M) at 100 ng/ml, NRG1 (Neuregulin-1) at 50 ng/ml, PDGFaa (Platelet derived growth factor a) at 50 ng/ml, PDGFbb (platelet derive growth factor b) at 30 ng/ml, Ang2 (Angiopoeitin 2) at 400 ng/ml, amphiregulin at 100 ng/ml, HMGB 1 (Human high-mobility group box 1 protein) at 50 ng/ml; [2] From Genscript, LIF (Leukemia inhibitory factor) at 20 ng/ml, GM-CSF (Granulocyte macrophage colony stimulating factor) at 25 ng/ml, M-CSF (Macrophage colony stimulating factor) at 50 ng/ml; [3] From Anaspec, PAR1 (Protease activated receptor 1 agonist) at 100 μM; PAR2 (Protease activated receptor 2 agonist; peptide SLIGKV-NH2, Cat. No. 60217-1) at 100 μM; PAR4 (Protease activated receptor […] agonist; peptide AYPGKF-NH2, Cat. No. 60218-1) at 100 μM; [4] From Peprotech, HGF (Hepatocyte Growth Factor) at 100 ng/ml; IL-31 (Interleukin-31) at 50 ng/ml, IL-33 (Interleukin-33) at 50 ng/ml, IL1-a (Interleukin-1 alpha) at 10 ng/ml, CTGF (Connective tissue growth factor) at 20 ng/ml, WISP1 (Wnt-1 inducible signaling pathway protein) at 20 ng/ml, PTHrP ([…] hormone-related protein) at 50 ng/ml, MCP1 (monocyte chemotactic protein-1) at 50 ng/ml; and [5] from Sigma, Fulvestrant at 1 μM. Fresh medium containing ligand and/or inhibitor was added 3-4 days after initial dose, and at Day 7 cells were harvested for western blot analysis.
Cells were plated and treated with ligand for one or 7 days. At the time of harvest, cells were trypsinized and snap frozen for later use. Total RNA was isolated using RNAqueous-4 PCR Kit (Ambion, AM1914). For qPCR on tumor material, the tumor samples were homogenized using a small tissue homogenizer (Ultra-Turrax T8 from IKA-Werke) in 175ul RNA lysis buffer. Homogenization was for 1 minute on ice. RNA was isolated using the SV Total RNA Isolation System (Promega Cat #Z3100) according to the manufactures instructions. Samples were DNase treated using the Turbo DNA-Free kit (Ambion, AM1907) and reverse transcribed using Superscript III (Invitrogen, 18080-044) for qPCR analysis. Taqman primers and Locked-Nucleic Acid probes were designed using ProbeFinder software (Universal Probe library, Roche). For mRNA analysis, real time PCR was performed using the ABI 7900HT series PCR machine. Thermocycle conditions were as follows: 50° C. for 2 minutes, 95° C. for 10 minutes, 95° C. for 15 seconds, 50° C. for 10 seconds, 60° C. for 1 minute. Data was collected over 45 cycles and then normalized to GAPDH and further normalized to the untreated control sample.

[2] = system: CFPAC-1 cells; assay: Induction of EMT by growth factors and cytokines, E-cadherin and vimentin immunoblotting; type: cell-based, human; details: CFPAC-1 cells treated 7 days with ligand
Protocol: as §1
Cells were harvested by washing once with PBS, and lysing on ice for 10 minutes with scraping (using a Cell Lifter, Corning Inc. #3008) in ice cold RIPA buffer (Sigma R0278) containing Protease inhibitor (Sigma P8340), Phosphatase inhibitors (Sigma P2850, P5726) and 200 μM Sodium Vanadate. Supernatents were micro-centrifuged at max speed, 4° C. for 10 minutes. Protein content was quantitated using the BCA method (Pierce #23225) and samples were normalized to total protein in Laemli buffer and heated at 100° C. for 10 minutes. SDS PAGE was run using a Bis-Tris gel system (Invitrogen NuPAGE) with MOPS buffer (Invitrogen NP0001), transferred onto nitrocellulose using the iBLOT system (Invitrogen) and blocked in PBS-T (0.1% Tween 20), 5% non-fat milk or BSA in guidance with primary Ab supplier requirements. All primary antibodies were incubated overnight at 4° C. in PBS-T (0.1% Tween 20) in either 5% non-fat milk or BSA, diluted to the following working dilutions: anti E Cadherin (Santa Cruz #sc-21791) 1:500 dilution; anti Vimentin (BD Biosciences #550513) 1:2000 dilution;); anti GAPDH HRP conjugate (Santa Cruz sc-25778) 1:1000 dilution; anti β-Actin (Sigma, A5441) 1:10,000 dilution. […]

B1: OSM: Oncostatin M from R&D systems, used at 100 ng/ml (protein, UniProt P13725 26-221, looked up)
Oncostatin-M: AAIGSCSKEYRVLLGQLQKQTDLMQDTSRLLDPYIRIQGLDVPKLREHCRERPGAFPSEETLRGLGRRGFLQTLNATLGCVLHRLADLEQRLPKAQDLERSGLNIEDLEKLQMARPNILGLRNNIYCMAQLLDNSDTAEPTKAGRGASQPPTPTPASDAFQRKLEGCRFLHGYHRFMHSVGRVFSKWGESPNRSRR
ACTN1 mRNA fold change ([1]; ligand 1 Day): NC (Only changes greater than 3 fold are reported. NC indicates no change.)
CDH1 mRNA fold change ([1]; ligand 1 Day): NC (Only changes greater than 3 fold are reported. NC indicates no change.)
CDH2 mRNA fold change ([1]; ligand 1 Day): NC (Only changes greater than 3 fold are reported. NC indicates no change.)
ITGB3 mRNA fold change ([1]; ligand 1 Day): 31.39 fold
MMP7 mRNA fold change ([1]; ligand 1 Day): NC (Only changes greater than 3 fold are reported. NC indicates no change.)
MTA3 mRNA fold change ([1]; ligand 1 Day): NC (Only changes greater than 3 fold are reported. NC indicates no change.)
PLAUR mRNA fold change ([1]; ligand 1 Day): NC (Only changes greater than 3 fold are reported. NC indicates no change.)
SNAI1 mRNA fold change ([1]; ligand 1 Day): NC (Only changes greater than 3 fold are reported. NC indicates no change.)
SNAI2 mRNA fold change ([1]; ligand 1 Day): NC (Only changes greater than 3 fold are reported. NC indicates no change.)
SPARC mRNA fold change ([1]; ligand 1 Day): NC (Only changes greater than 3 fold are reported. NC indicates no change.)
TWIST1 mRNA fold change ([1]; ligand 1 Day): NC (Only changes greater than 3 fold are reported. NC indicates no change.)
VIM mRNA fold change ([1]; ligand 1 Day): NC (Only changes greater than 3 fold are reported. NC indicates no change.)
ZEB1 mRNA fold change ([1]; ligand 1 Day): NC (Only changes greater than 3 fold are reported. NC indicates no change.)
ZEB2 mRNA fold change ([1]; ligand 1 Day): 3.52 fold
ACTN1 mRNA fold change ([1]; ligand 7 Day): NC (Only changes greater than 3 fold are reported. NC indicates no change.)
CDH1 mRNA fold change ([1]; ligand 7 Day): −3.06 fold
CDH2 mRNA fold change ([1]; ligand 7 Day): NC (Only changes greater than 3 fold are reported. NC indicates no change.)
ITGB3 mRNA fold change ([1]; ligand 7 Day): 106.2 fold
MMP7 mRNA fold change ([1]; ligand 7 Day): NC (Only changes greater than 3 fold are reported. NC indicates no change.)
MTA3 mRNA fold change ([1]; ligand 7 Day): NC (Only changes greater than 3 fold are reported. NC indicates no change.)
PLAUR mRNA fold change ([1]; ligand 7 Day): NC (Only changes greater than 3 fold are reported. NC indicates no change.)
SNAI1 mRNA fold change ([1]; ligand 7 Day): NC (Only changes greater than 3 fold are reported. NC indicates no change.)
SNAI2 mRNA fold change ([1]; ligand 7 Day): NC (Only changes greater than 3 fold are reported. NC indicates no change.)
SPARC mRNA fold change ([1]; ligand 7 Day): −33 fold
TWIST1 mRNA fold change ([1]; ligand 7 Day): 3.3 fold
VIM mRNA fold change ([1]; ligand 7 Day): NC (Only changes greater than 3 fold are reported. NC indicates no change.)
ZEB1 mRNA fold change ([1]; ligand 7 Day): 3.00 fold
ZEB2 mRNA fold change ([1]; ligand 7 Day): 13.7 fold
Induction of EMT (E-cadherin down, vimentin up) [2]: most complete EMT
